In patent US7262271:

Tested on: Antisera against the PAS1 peptides

Substance | Arg-specific proteolytic activity | Lys-specific proteolytic activity
P. gingivalis Arg-specific proteinase | Antisera against the PAS1 peptides inhibited both Arg- and Lys-specific proteolytic activity | –
P. gingivalis Lys-specific proteinase | – | Antisera against the PAS1 peptides inhibited both Arg- and Lys-specific proteolytic activity
